Measurements as given in PMC6086316.

Legend:
[1] = target: recombinant emHofQ (without a His tail) (Aggregatibacter actinomycetemcomitans); assay: thermal shift assay (differential scanning fluorometry); PBS, SYPRO orange; 5 μM emHofQ with 5-200 μM IL-8, or 5 μM IL-1β with 2.5-50 μM emHofQ; heated 20-99°C
[2] = target: N-His-emHofQ (Aggregatibacter actinomycetemcomitans); assay: SPR; Biacore X; N-His-emHofQ coupled to Ni-NTA chip (115-199 RU); IL-8 injected at 1-15 000 nM, 30 μl/min; 10 mM HEPES, 150 mM NaCl, 0.005% P-20, pH 7.4; one-site binding model; apparent
[3] = target: recombinant mature interleukin-8 (IL-8) (human); assay: time-resolved fluorometric immunoassay (TRFIA); 60 pmol IL-8 or IL-1β coated on wells; emHofQ wild type and mutants 5 nM-2 μM, 4°C overnight; Eu-N1 anti-6xHis antibody; apparent Kd
[4] = target: human mature interleukin-1β (IL-1β, amino acids 117-269) (human); assay: thermal shift assay (differential scanning fluorometry); PBS, SYPRO orange; 5 μM emHofQ with 5-200 μM IL-8, or 5 μM IL-1β with 2.5-50 μM emHofQ; heated 20-99°C
human mature interleukin-1β (IL-1β, amino acids 117-269) (human), sequence (P01584 117-269): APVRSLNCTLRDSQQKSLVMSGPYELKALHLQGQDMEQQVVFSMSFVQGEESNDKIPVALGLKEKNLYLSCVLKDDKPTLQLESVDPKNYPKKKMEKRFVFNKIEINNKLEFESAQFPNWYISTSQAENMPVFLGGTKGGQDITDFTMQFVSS

[5] = target: recombinant mature interleukin-8 (IL-8) (human); assay: ELISA; cytokines (6 pmol per well) coated on Maxisorp plates; 490 nM emHofQ with C-terminal 8-His tail in PBS, 4°C overnight; detection with His-Probe-HRP; values compared with BSA control
[6] = target: human mature interleukin-1β (IL-1β, amino acids 117-269) (human); assay: as above
[7] = target: recombinant mature interleukin-8 (IL-8) (human); assay: time-resolved fluorometric immunoassay (TRFIA); 6 pmol IL-8 or IL-1β coated on wells; C-His-emHofQ 10-740 nM in Delfia Assay Buffer, RT 1 h; Eu-N1 anti-6xHis antibody; one-to-one fit
[8] = target: human mature interleukin-1β (IL-1β, amino acids 117-269) (human); assay: as above
[9] = target: human mature interleukin-1β (IL-1β, amino acids 117-269) (human); assay: time-resolved fluorometric immunoassay (TRFIA); 60 pmol IL-8 or IL-1β coated on wells; emHofQ wild type and mutants 5 nM-2 μM, 4°C overnight; Eu-N1 anti-6xHis antibody; apparent Kd

“recombinant mature interleukin-8 (IL-8) (natural protein)” gave a Tm of emHofQ with 200 μM IL-8 (45.3°C without) [1] of 51.7 °C and a Kd [2] of 2400 nM.

“emHofQ_L2 (D165A, R166A) (domain or fragment)” gave a Kd [3] of 110 nM.

For “emHofQ_L1L2 (H136A, F137A, K139A, D165A, R166A) (domain or fragment)”, the Kd [3] was 200 nM.

In the case of “recombinant emHofQ (without a His tail) (domain or fragment)”, the Tm of IL-1β with 50 μM emHofQ (60.2°C without) [4] is reported as 55.8 °C.

“C-His emHofQ (extramembranous domain of the secretin HofQ, C-terminal His tag) (domain or fragment)” showed a fold binding over the control (BSA) [5] of 4 fold, a fold binding over the control (BSA) [6] of 1.3 fold and a Kd [7] of 43 nM. For the same substance, the Kd [8] was 140 nM, the Kd [3] was 44 nM and the Kd [9] was 90 nM.

In the case of “emHofQ_L1 (H136A, F137A, K139A) (domain or fragment)”, the Kd [3] is reported as 190 nM.
